{"source": "patent US12448453", "about": "(NANJING IASO BIOTECHNOLOGY, dated 2025)", "binders": {"B1": {"name": "clone 80 CAR (CD22-targeted chimeric antigen receptor, clone 80 scFv with CD8α hinge and transmembrane region, 4-1BB and CD3z), on reporter cells or CAR-T cells (other)", "chain": "QVQLQESGPGLVKPSGTLSLTCAVSGGSISSSNWWSWVRQPPGKGLEWIGEIYHSGSTNYNPSLKSRVTISVDKSKNQFSLKLSSVTAADTAVYYCARLPGYESAFDIWGQGTMVTVSSGGGGSGGGGSGGGGSEIVLTQSPGTLSLSPGERATLSCRASQSVSSSYLAWYQQKPGQAPRLLIYGASSRATGIPDRFSGSGSGTDFTLTISRLEPEDFAVYYCQQAGLFPYTFGGGTKVEIKFVPVFLPAKPTTTPAPRPPTPAPTIASQPLSLRPEACRPAAGGAVHTRGLDFACDIYIWAPLAGTCGVLLLSLVITLYCNHRNKRGRKKLLYIFKQPFMRPVQTTQEEDGCSCRFPEEEEGGCELRVKFSRSADAPAYQQGQNQLYNELNLGRREEYDVLDKRRGRDPEMGGKPRRKNPQEGLYNELQKDKMAEAYSEIGMKGERRRGKGHDGLYQGLSTATKDTYDALHMQALPPRGSGEGRGSLLTCGDVEENPG", "notes": "Chimeric antigen receptor on the cell surface; also called clone80-bbz"}, "B2": {"name": "clone 28 CAR (CD22-targeted chimeric antigen receptor, clone 28 scFv with CD8α hinge and transmembrane region, 4-1BB and CD3z), on reporter cells or CAR-T cells (other)", "chain": "QVQLQESGPGLVKPSETLSLTCTVSGGSISSYYWSWIRQPAGKGLEWIGRIYTSGSTNYNPSLKSRVTMSVDTSKNQFSLKLSSVTAADTAVYYCARDLYRDGMDVWGQGTTVTVSSGGGGSGGGGSGGGGSDIQMTQSPSTLSASVGDRVTITCRASQSISSWLAWYQQKPGKAPKLLISDASSLESGVPSRFSGSGSGTEFTLTISSLQPDDFATYYCQQANTYSPTFGGGTKVEIKFVPVFLPAKPTTTPAPRPPTPAPTIASQPLSLRPEACRPAAGGAVHTRGLDFACDIYIWAPLAGTCGVLLLSLVITLYCNHRNKRGRKKLLYIFKQPFMRPVQTTQEEDGCSCRFPEEEEGGCELRVKFSRSADAPAYQQGQNQLYNELNLGRREEYDVLDKRRGRDPEMGGKPRRKNPQEGLYNELQKDKMAEAYSEIGMKGERRRGKGHDGLYQGLSTATKDTYDALHMQALPPRGSGEGRGSLLTCGDVEENPG", "notes": "Chimeric antigen receptor on the cell surface; The entry ends with GSG and the T2A remnant; also called clone28-bbz"}, "B3": {"name": "clone 17 anti-CD22 antibody in the form of IgG (antibody, V domains shown)", "VH": "not shown", "VL": "DIQMTQSPSTLSASVGDRVTITCRASQSISSWLAWYQQKPGKAPKLLIYKASSLESGVPSRFSGSGSGTEFTLTISSLQPDDFATYYCQQYERFPWTFGGGTKVEIK", "notes": "Fully human; tested 'in the form of IgG'"}, "B4": {"name": "clone 80 anti-CD22 antibody in the form of IgG (antibody, V domains shown)", "VH": "QVQLQESGPGLVKPSGTLSLTCAVSGGSISSSNWWSWVRQPPGKGLEWIGEIYHSGSTNYNPSLKSRVTISVDKSKNQFSLKLSSVTAADTAVYYCARLPGYESAFDIWGQGTMVTVSS", "VL": "EIVLTQSPGTLSLSPGERATLSCRASQSVSSSYLAWYQQKPGQAPRLLIYGASSRATGIPDRFSGSGSGTDFTLTISRLEPEDFAVYYCQQAGLFPYTFGGGTKVEIK", "notes": "as for B3"}, "B5": {"name": "clone 17 anti-CD22 antibody in the form of Fab (Fab, V domains shown)", "VH": "not shown", "VL": "B3 VL", "notes": "Tested 'in the form of Fab'"}, "B6": {"name": "clone 28 anti-CD22 antibody in the form of Fab (Fab, V domains shown)", "VH": "QVQLQESGPGLVKPSETLSLTCTVSGGSISSYYWSWIRQPAGKGLEWIGRIYTSGSTNYNPSLKSRVTMSVDTSKNQFSLKLSSVTAADTAVYYCARDLYRDGMDVWGQGTTVTVSS", "VL": "B3 VL with Y49S, K50D, Y91A, E92N, R93T, F94Y, P95S, W96P", "notes": "Tested 'in the form of Fab'"}, "B7": {"name": "clone 80 anti-CD22 antibody in the form of Fab (Fab, V domains shown)", "VH": "B4 VH", "VL": "B4 VL", "notes": "Tested 'in the form of Fab'"}, "B8": {"name": "clone 28 anti-CD22 antibody in the form of IgG (antibody, V domains shown)", "VH": "B6 VH", "VL": "B3 VL with Y49S, K50D, Y91A, E92N, R93T, F94Y, P95S, W96P", "notes": "as for B3"}}, "key": {"[1]": {"biological_target": "T1, CD22 antigen on the surface of target cells (Raji, REH, NALM6, JVM2, 3E09, 3D11) (human, UniProt P20273 20-847)", "assay": "cell-based or functional assay"}, "[2]": {"biological_target": "T1, CD22 antigen on the surface of target …", "assay": "cell-based or functional assay", "remark": "listed apart in the source"}, "[3]": {"biological_target": "T1, CD22 antigen on the surface of target …", "assay": "cell-based or functional assay", "remark": "listed apart in the source"}, "[4]": {"biological_target": "T2, CD22-FITC protein (Acro Biosystem, Cat. No. SI2-HF2H6) (UniProt P20273 20-687, FITC label)", "T2 construct": "Bought reagent; also called FITC-CD22 protein; CD22 protein", "assay": "flow cytometry of CAR-T cells stained with FITC-CD22 protein and APC anti-CD8, quadrant gate", "description": "Cell samples were stained with APC mouse anti-human CD8, PE anti-human EGFR and FITC-CD22 protein.\nWhen the cells were cultured to the 6th or 7th day, the expression of CAR molecules, tEGFR molecules and CD8 on the cell surface was detected by flow cytometry. […] On day 6 of cell culture, approximately 5 ×10^5 cells were removed from each sample individually, and the medium was removed by centrifugation at 500 g. […] The mixtures were mixed well and incubated at 4° C. in the dark for 20 min. After completion of incubation, the cells were washed twice with PBS+1% HSA solution again, re-suspended in 200 μL of PBS+1% HSA solution, and then loaded onto the instrument for testing."}, "[5]": {"biological_target": "T3, human CD22 (human, UniProt P20273 20-687, limits assumed)", "T3 construct": "CD22-llama-Fc and CD22-his are named only for the yeast library sorting; also called CD22 antigen", "assay": "ForteBio, antibody in the form of IgG, avid"}, "[6]": {"biological_target": "T3, human CD22", "assay": "ForteBio, antibody in the form of Fab, monovalent"}}, "note": "Substitutions are numbered along the chain they refer to. Names and notes keep the numbering of the source."}
{"binder": "B1", "values": [{"measurement": "positive rate of CD107a in the CD8+/CAR+ cell population, target cell 3D11 (CD22 knockout/knockdown Raji)", "setting": "[1]", "result": 18.9, "unit": "%"}, {"measurement": "positive rate of CD107a in the CD8+/CAR+ cell population, target cell JVM2", "setting": "[1]", "result": 32.8, "unit": "%"}, {"measurement": "positive rate of CD107a in the CD8+/CAR+ cell population, target cell NALM6", "setting": "[1]", "result": 59.7, "unit": "%"}, {"measurement": "positive rate of CD107a in the CD8+/CAR+ cell population, target cell REH", "setting": "[1]", "result": 62.3, "unit": "%"}, {"measurement": "positive rate of CD107a in the CD8+/CAR+ cell population, target cell raji", "setting": "[1]", "result": 39.7, "unit": "%"}, {"measurement": "in vitro cell killing efficiency, target cells NALM6-ffLuc, 17 h, E:T 0.5:1", "setting": "[2]", "result": 15.3, "unit": "%"}, {"measurement": "in vitro cell killing efficiency, target cells NALM6-ffLuc, 17 h, E:T 1:1", "setting": "[2]", "result": 58.5, "unit": "%"}, {"measurement": "in vitro cell killing efficiency, target cells NALM6-ffLuc, 17 h, E:T 2:1", "setting": "[2]", "result": 90.5, "unit": "%"}, {"measurement": "in vitro cell killing efficiency, target cells REH-ffLuc, 17 h, E:T 0.5:1", "setting": "[3]", "result": -18.2, "unit": "%"}, {"measurement": "in vitro cell killing efficiency, target cells REH-ffLuc, 17 h, E:T 1:1", "setting": "[3]", "result": 40.2, "unit": "%"}, {"measurement": "in vitro cell killing efficiency, target cells REH-ffLuc, 17 h, E:T 2:1", "setting": "[3]", "result": 89, "unit": "%"}, {"measurement": "percent of cells in Q1 (FITC-CD22 positive, APC-CD8 negative)", "setting": "[4]", "result": 27.5, "unit": "%"}, {"measurement": "percent of cells in Q2 (FITC-CD22 positive, APC-CD8 positive)", "setting": "[4]", "result": 17.6, "unit": "%"}]}
{"binder": "B2", "values": [{"measurement": "positive rate of CD107a in the CD8+/CAR+ cell population, target cell 3D11 (CD22 knockout/knockdown Raji)", "setting": "[1]", "result": 16.9, "unit": "%"}, {"measurement": "positive rate of CD107a in the CD8+/CAR+ cell population, target cell JVM2", "setting": "[1]", "result": 43.5, "unit": "%"}, {"measurement": "positive rate of CD107a in the CD8+/CAR+ cell population, target cell NALM6", "setting": "[1]", "result": 73.5, "unit": "%"}, {"measurement": "positive rate of CD107a in the CD8+/CAR+ cell population, target cell REH", "setting": "[1]", "result": 70.4, "unit": "%"}, {"measurement": "positive rate of CD107a in the CD8+/CAR+ cell population, target cell raji", "setting": "[1]", "result": 54.8, "unit": "%"}, {"measurement": "in vitro cell killing efficiency, target cells NALM6-ffLuc, 17 h, E:T 0.5:1", "setting": "[2]", "result": -26.8, "unit": "%"}, {"measurement": "in vitro cell killing efficiency, target cells NALM6-ffLuc, 17 h, E:T 1:1", "setting": "[2]", "result": 13.8, "unit": "%"}, {"measurement": "in vitro cell killing efficiency, target cells NALM6-ffLuc, 17 h, E:T 2:1", "setting": "[2]", "result": 76.1, "unit": "%"}, {"measurement": "in vitro cell killing efficiency, target cells REH-ffLuc, 17 h, E:T 0.5:1", "setting": "[3]", "result": -50.1, "unit": "%"}, {"measurement": "in vitro cell killing efficiency, target cells REH-ffLuc, 17 h, E:T 1:1", "setting": "[3]", "result": -23.9, "unit": "%"}, {"measurement": "in vitro cell killing efficiency, target cells REH-ffLuc, 17 h, E:T 2:1", "setting": "[3]", "result": 63.8, "unit": "%"}, {"measurement": "percent of cells in Q1 (FITC-CD22 positive, APC-CD8 negative)", "setting": "[4]", "result": 23.3, "unit": "%"}, {"measurement": "percent of cells in Q2 (FITC-CD22 positive, APC-CD8 positive)", "setting": "[4]", "result": 12.7, "unit": "%"}]}
{"binder": "B3", "values": [{"measurement": "Kd", "setting": "[5]", "result": 1.6, "unit": "nM"}, {"measurement": "Response", "setting": "[5]", "result": 0.62, "unit": "nm"}, {"measurement": "koff", "setting": "[5]", "result": 0.0002, "unit": "s⁻¹"}, {"measurement": "kon", "setting": "[5]", "result": 130000, "unit": "M⁻¹ s⁻¹"}]}
{"binder": "B4", "values": [{"measurement": "Kd", "setting": "[5]", "result": 0.82, "unit": "nM"}, {"measurement": "Response", "setting": "[5]", "result": 0.93, "unit": "nm"}, {"measurement": "koff", "setting": "[5]", "result": 0.0002, "unit": "s⁻¹"}, {"measurement": "kon", "setting": "[5]", "result": 240000, "unit": "M⁻¹ s⁻¹"}]}
{"binder": "B5", "values": [{"measurement": "Kd", "setting": "[6]", "result": 8.1, "unit": "nM"}, {"measurement": "Response", "setting": "[6]", "result": 0.19, "unit": "nm"}, {"measurement": "koff", "setting": "[6]", "result": 0.0017, "unit": "s⁻¹"}, {"measurement": "kon", "setting": "[6]", "result": 210000, "unit": "M⁻¹ s⁻¹"}]}
{"binder": "B6", "values": [{"measurement": "Kd", "setting": "[6]", "result": 0.94, "unit": "nM"}, {"measurement": "Response", "setting": "[6]", "result": 0.25, "unit": "nm"}, {"measurement": "koff", "setting": "[6]", "result": 0.00027, "unit": "s⁻¹"}, {"measurement": "kon", "setting": "[6]", "result": 280000, "unit": "M⁻¹ s⁻¹"}]}
{"binder": "B7", "values": [{"measurement": "Kd", "setting": "[6]", "result": 13, "unit": "nM"}, {"measurement": "Response", "setting": "[6]", "result": 0.24, "unit": "nm"}, {"measurement": "koff", "setting": "[6]", "result": 0.0046, "unit": "s⁻¹"}, {"measurement": "kon", "setting": "[6]", "result": 360000, "unit": "M⁻¹ s⁻¹"}]}
{"binder": "B8", "values": [{"measurement": "Kd", "setting": "[5]", "result": 0.97, "unit": "nM"}, {"measurement": "Response", "setting": "[5]", "result": 0.81, "unit": "nm"}, {"measurement": "koff", "setting": "[5]", "result": 0.0002, "unit": "s⁻¹"}, {"measurement": "kon", "setting": "[5]", "result": 210000, "unit": "M⁻¹ s⁻¹"}]}
